Test results reported in PMC6224402, “PIM2-mediated phosphorylation of hexokinase 2 is critical for tumor growth and paclitaxel resistance in breast cancer” (Oncogene, 2018).

Biological target: T1, GST-tagged HK2 (human, UniProt P52789 1-917)
T1 construct: Hexokinase 2 (HK2), human cDNA cloned into pGEX-4T-1; also called GST-HK2; source: E. coli BL21 (DE3), purified
T1 sequence (looked up): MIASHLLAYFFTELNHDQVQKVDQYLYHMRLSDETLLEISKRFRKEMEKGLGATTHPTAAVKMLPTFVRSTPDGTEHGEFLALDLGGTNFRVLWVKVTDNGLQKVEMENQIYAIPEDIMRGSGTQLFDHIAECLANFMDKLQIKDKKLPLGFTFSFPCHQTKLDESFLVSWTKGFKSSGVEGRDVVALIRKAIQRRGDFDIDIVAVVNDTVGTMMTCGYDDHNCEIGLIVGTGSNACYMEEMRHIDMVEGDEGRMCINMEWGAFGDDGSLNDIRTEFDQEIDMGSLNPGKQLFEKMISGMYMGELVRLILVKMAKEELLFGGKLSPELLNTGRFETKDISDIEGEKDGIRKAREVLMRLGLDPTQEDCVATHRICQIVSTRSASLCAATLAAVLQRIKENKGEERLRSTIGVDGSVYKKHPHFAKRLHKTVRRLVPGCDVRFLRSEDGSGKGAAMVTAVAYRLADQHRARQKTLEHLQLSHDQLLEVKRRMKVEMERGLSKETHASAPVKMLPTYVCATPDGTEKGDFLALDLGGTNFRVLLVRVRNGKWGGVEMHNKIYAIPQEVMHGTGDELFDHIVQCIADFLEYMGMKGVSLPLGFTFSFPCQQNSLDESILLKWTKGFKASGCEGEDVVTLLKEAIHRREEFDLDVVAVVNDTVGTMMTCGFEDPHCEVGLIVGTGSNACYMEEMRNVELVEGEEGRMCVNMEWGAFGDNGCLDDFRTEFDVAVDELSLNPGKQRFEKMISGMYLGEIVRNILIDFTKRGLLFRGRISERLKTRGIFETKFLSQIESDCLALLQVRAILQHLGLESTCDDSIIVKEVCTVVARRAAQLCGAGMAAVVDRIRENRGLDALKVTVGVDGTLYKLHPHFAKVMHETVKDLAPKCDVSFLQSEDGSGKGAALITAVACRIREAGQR
Assay: pull-down; purified GST-tagged HK2 or GST mixed with His-PIM2; GST-binding resin, more than 8 h, five washes with lysis buffer
Conditions: both partners purified

binding result: binds
B1: His-tagged PIM2 (enzyme)
chain: not shown
notes: Serine/threonine kinase PIM2, human cDNA cloned into pet28a; also called His-PIM2; source: E. coli BL21 (DE3), purified
